For experiment [1], the target named is His-tagged TGS1-NLS-GFP (NLS of P. falciparum trimethylguanosine synthase fused to GFP) (Plasmodium falciparum). The experiment in a line: AlphaScreen or HTRF; biotinylated IMPαs titrated against His-tagged NLS-GFPs (30 nM); apparent dissociation constant.
The target of experiment [2] is His-tagged GCN5-NLS-GFP (NLS of T. gondii histone acetyltransferase GCN5 fused to GFP) (Toxoplasma gondii). Described as above.

B1: Plasmodium falciparum importin α, biotinylated GST fusion protein (natural protein)
chain: MDRRIEARRKEFKKNCDDTRRKREDLVVQIRKQQRECQLESKRAMVMANIGFEENNTYNLNYAKGNQNDSTNDSIYNTSSNNSSNTLEMLKKIPTLAIGVRSNEYVTQLNSTRELRKLLSIEKGPPIQEVINSGVVPYIVEFLKYDDKTDLQFEAAWVITNIASGSQEQTKVVIDNNAVPHLVRLLSSEKEDVCEQAVWALGNIAGDSAECREYVLNQNSLPLLLKILRTSHKRTLIRNAAWTLSNLCRGKPAPKFEIVSKALPTLAALIYNDDEEILTDACWTLSYLSDGSNENINSVLDAGVAERVVELLSHCSFLVQTPALRTVGNIVTGDDLQTDVVVKLGAVQKLSCLLNSSKKSIKKEACWALSNITAGNISQIQAVIDNNVIPQLINILMKEDFEVRKEAAWAISNASSGGSELQIEYLVECGAIHSLSNLLDVEDANIISVTLEGLENILEMGENKKLRDNLPTNPYVHLFEECDSVHKIDALQDRKVDNICNKAWKILYKYFPFVINNELNNAQIPLNNVFANTEDAVLNKDFTFD
modifications: biotin (Sulfo-NHS-Biotin reagent)
B1: the Kd in experiment [1] was determined as 6.6 nM; in experiment [2], 2.5 nM.
